Experimental data published in publication PMC9907809, “Conformational rearrangements in the sensory RcsF/OMP complex mediate signal transduction across the bacterial cell envelope” (PLOS Genetics, 2023).

Biological target: T1, OmpA ( (endogenous in the host …, UniProt P0A910 22-346))
T1 construct: OmpA, outer membrane protein; source: endogenous, in cells / DDM-solubilized membrane fraction
T1 sequence (looked up): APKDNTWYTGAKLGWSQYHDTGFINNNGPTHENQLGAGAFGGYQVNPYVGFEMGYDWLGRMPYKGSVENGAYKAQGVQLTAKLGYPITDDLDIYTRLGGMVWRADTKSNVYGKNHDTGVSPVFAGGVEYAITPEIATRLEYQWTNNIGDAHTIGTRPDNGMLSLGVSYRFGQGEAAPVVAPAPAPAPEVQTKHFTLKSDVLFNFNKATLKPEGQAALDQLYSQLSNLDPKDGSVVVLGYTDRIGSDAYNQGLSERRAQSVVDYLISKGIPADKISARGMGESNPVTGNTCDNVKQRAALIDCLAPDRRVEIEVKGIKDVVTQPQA
Test: cross-linking; in vivo formaldehyde crosslinking; OM version of RcsF variants with endogenous OmpA (and BamA); immunoblot of whole cell lysates probed with α-RcsF, RcsF/OmpA band quantified relative to the WT
Conditions: partners not purified

B1: RcsF(A55V), OM version (natural protein, UniProt P69411 16-134, looked up)
chain: CSMLSRSPVEPVQSTAPQPKAEPAKPKAPRATPVRIYTNVEELVGKPFRDLGEVSGDSCQASNQDSPPSIPTARKRMQINASKMKANAVLLHSCEVTSGTPGCYRQAVCIGSALNITAK
modifications: lipidated N-terminal cysteine (residue 16)
notes: RcsF, sensory outer membrane lipoprotein; mature RcsF = residues 16-134 (NTD 16-48, CTD 49-134); also called GOF[OM] variant; source: expressed from the low copy number vector pZS21 in a ΔrcsF strain; in cells
- percent decrease of RcsF/OmpA complex relative to WT: 50%
